{"source": "paper PMC11059001", "about": "“Crystal structure of Trichinella spiralis calreticulin and the structural basis of its complement evasion mechanism involving C1q” (Frontiers in Immunology, 2024)", "binders": {"B1": {"name": "C1q-binding peptide P^TsCRT (TsCRT residues 122-146) (peptide)", "peptide": "DLEDFNSDTPYRIMFGPDICGPEKR", "notes": "calreticulin of Trichinella spiralis (TsCRT), residues 122-146; source: synthetic peptide"}}, "target": "T1, complement C1q (human, UniProt P02745;P02746;P02747)", "T1 construct": "also called human complement C1q; source: bought: Merk (Darmstadt, Germany); copies: 6 + 6 + 6", "T1 sequence (P02745 23-245, chain 1 of 3)": "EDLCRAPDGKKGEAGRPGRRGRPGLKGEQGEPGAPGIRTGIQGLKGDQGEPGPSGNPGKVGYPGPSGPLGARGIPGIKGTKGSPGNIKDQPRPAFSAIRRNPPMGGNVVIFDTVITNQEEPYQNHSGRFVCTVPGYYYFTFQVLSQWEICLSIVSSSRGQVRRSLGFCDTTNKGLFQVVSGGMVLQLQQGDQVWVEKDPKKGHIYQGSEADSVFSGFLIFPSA", "T1 sequence (P02746 28-253, chain 2 of 3)": "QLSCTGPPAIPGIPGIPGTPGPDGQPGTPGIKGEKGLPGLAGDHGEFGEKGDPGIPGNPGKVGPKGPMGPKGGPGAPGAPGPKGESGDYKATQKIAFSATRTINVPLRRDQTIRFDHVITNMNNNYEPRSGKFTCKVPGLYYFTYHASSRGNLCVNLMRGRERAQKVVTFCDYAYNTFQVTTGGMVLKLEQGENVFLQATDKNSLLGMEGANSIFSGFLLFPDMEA", "T1 sequence (P02747 29-245, chain 3 of 3)": "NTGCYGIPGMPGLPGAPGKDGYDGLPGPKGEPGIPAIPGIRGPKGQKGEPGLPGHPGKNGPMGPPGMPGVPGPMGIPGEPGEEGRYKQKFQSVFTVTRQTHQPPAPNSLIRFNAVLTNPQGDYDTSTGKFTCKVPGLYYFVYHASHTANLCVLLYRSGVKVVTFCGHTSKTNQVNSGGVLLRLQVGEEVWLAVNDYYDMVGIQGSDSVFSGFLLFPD", "test": "MST; fluorescently labelled C1q (RED-NHS) 40 nM; TsCRT, TsCRT^Δ, mutants or P^TsCRT gradient-diluted; 50 mM Hepes, 150 mM NaCl, 2 mM CaCl2, 0.05% Tween 20, pH 7.4; Monolith NT.115, LED power 20%, MST power 50%", "settings": "both partners purified", "data": [{"binder": "B1", "values": [{"measurement": "Kd", "result": 260, "unit": "nM"}]}]}
